Laboratory results as given in the supplement of paper PMC6757056.
± gives the standard deviation of the averaged measurements.

B1: library; a variant is named by its letters at N, in order (parent)
chain: GCUGUCACCGAGAAACUGUGAAGUAUAUCUUAAACCUGGGCACUUAAAAGAUAUAUGGAGUUAGUAGUGCAACCUGCUCGGUCUGAUGAGUCCNNNNNNGGACGAAACAGC

Key:
cyclic di-GMP [1] = variants of: B1; assay: normalized RNA/DNA level without ligand (relative to sTRSVctl = 100) (log10 (% of sTRSVctl)); HEK293T; ligand: cyclic di-GMP (c-di-GMP-II aptamer); higher = less ribozyme self-cleavage, higher mRNA level; settings: reporter: mCherry (pCS4076), ligand present: no
Method in brief: (§1)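 HEK293T cells received ligand, where used, 1 h before being transfected with 4 µg per 6-well well of library plasmids encoding reporter-linked ribozyme switches. After 72 h, RNA was extracted with EDTA and sequenced. RNA level was derived from RNA reads per DNA read, normalized to a spiked-in non-cleaving sequence or the top sequences, then scaled and log-transformed. Values were ×100 then log10, the top set was 25 sequences, and the minimum was 100 DNA reads.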

cyclic di-GMP [2] = variants of: B1; assay: normalized RNA/DNA level with ligand (relative to sTRSVctl = 100) (log10 (% of sTRSVctl)); HEK293T; ligand: cyclic di-GMP (c-di-GMP-II aptamer); ligand concentration (+) RNA-Seq: 1 mM; higher = less ribozyme self-cleavage, higher mRNA level; settings: reporter: mCherry (pCS4076), ligand present: yes
Method in brief: as §1

Variant | normalized RNA/DNA level without ligand (log10) (cyclic di-GMP [1]) | normalized RNA/DNA level with ligand (log10) (cyclic di-GMP [2])
GCUGUCACCGAGAAACUGUGAAGUAUAUCUUAAACCUGGGCACUUAAAAGAUAUAUGGAGUUAGUAGUGCAACCUGCUCGGUCUGAUGAGUCCUCCGCCGGACGAAACAGC [UCCGCC] | 1.75 ± 0.076 | 1.89 ± 0.11
GCUGUCACCGAGAAACUGUGAAGUAUAUCUUAAACCUGGGCACUUAAAAGAUAUAUGGAGUUAGUAGUGCAACCUGCUCGGUCUGAUGAGUCCAUCUCGGGACGAAACAGC [AUCUCG] | 1.76 ± 0.023 | 1.87 ± 0.15
GCUGUCACCGAGAAACUGUGAAGUAUAUCUUAAACCUGGGCACUUAAAAGAUAUAUGGAGUUAGUAGUGCAACCUGCUCGGUCUGAUGAGUCCACAAAGGGACGAAACAGC [ACAAAG] | 1.4 ± 0.073 | 1.6 ± 0.06
GCUGUCACCGAGAAACUGUGAAGUAUAUCUUAAACCUGGGCACUUAAAAGAUAUAUGGAGUUAGUAGUGCAACCUGCUCGGUCUGAUGAGUCCACUAUCGGACGAAACAGC [ACUAUC] | 1.622 ± 0.012 | 1.79 ± 0.067
GCUGUCACCGAGAAACUGUGAAGUAUAUCUUAAACCUGGGCACUUAAAAGAUAUAUGGAGUUAGUAGUGCAACCUGCUCGGUCUGAUGAGUCCAUUACAGGACGAAACAGC [AUUACA] | 1.63 ± 0.027 | 1.79 ± 0.071
GCUGUCACCGAGAAACUGUGAAGUAUAUCUUAAACCUGGGCACUUAAAAGAUAUAUGGAGUUAGUAGUGCAACCUGCUCGGUCUGAUGAGUCCACAACAGGACGAAACAGC [ACAACA] | 1.46 ± 0.076 | 1.68 ± 0.099
GCUGUCACCGAGAAACUGUGAAGUAUAUCUUAAACCUGGGCACUUAAAAGAUAUAUGGAGUUAGUAGUGCAACCUGCUCGGUCUGAUGAGUCCAAGUUUGGACGAAACAGC [AAGUUU] | 1.724 ± 0.0032 | 1.88 ± 0.076
GCUGUCACCGAGAAACUGUGAAGUAUAUCUUAAACCUGGGCACUUAAAAGAUAUAUGGAGUUAGUAGUGCAACCUGCUCGGUCUGAUGAGUCCGACAGGGGACGAAACAGC [GACAGG] | 1.759 ± 0.0092 | 1.85 ± 0.037
GCUGUCACCGAGAAACUGUGAAGUAUAUCUUAAACCUGGGCACUUAAAAGAUAUAUGGAGUUAGUAGUGCAACCUGCUCGGUCUGAUGAGUCCUAUUAUGGACGAAACAGC [UAUUAU] | 1.682 ± 0.011 | 1.82 ± 0.14
GCUGUCACCGAGAAACUGUGAAGUAUAUCUUAAACCUGGGCACUUAAAAGAUAUAUGGAGUUAGUAGUGCAACCUGCUCGGUCUGAUGAGUCCGCGAGAGGACGAAACAGC [GCGAGA] | 1.41 ± 0.14 | 1.63 ± 0.073
GCUGUCACCGAGAAACUGUGAAGUAUAUCUUAAACCUGGGCACUUAAAAGAUAUAUGGAGUUAGUAGUGCAACCUGCUCGGUCUGAUGAGUCCAAUCUCGGACGAAACAGC [AAUCUC] | 1.74 ± 0.032 | 1.86 ± 0.075
GCUGUCACCGAGAAACUGUGAAGUAUAUCUUAAACCUGGGCACUUAAAAGAUAUAUGGAGUUAGUAGUGCAACCUGCUCGGUCUGAUGAGUCCUGGGUGGGACGAAACAGC [UGGGUG] | 1.73 ± 0.04 | 1.86 ± 0.098
GCUGUCACCGAGAAACUGUGAAGUAUAUCUUAAACCUGGGCACUUAAAAGAUAUAUGGAGUUAGUAGUGCAACCUGCUCGGUCUGAUGAGUCCUUGUAAGGACGAAACAGC [UUGUAA] | 1.685 ± 0.015 | 1.86 ± 0.15
GCUGUCACCGAGAAACUGUGAAGUAUAUCUUAAACCUGGGCACUUAAAAGAUAUAUGGAGUUAGUAGUGCAACCUGCUCGGUCUGAUGAGUCCGCGUUCGGACGAAACAGC [GCGUUC] | 1.34 ± 0.19 | 1.55 ± 0.13
GCUGUCACCGAGAAACUGUGAAGUAUAUCUUAAACCUGGGCACUUAAAAGAUAUAUGGAGUUAGUAGUGCAACCUGCUCGGUCUGAUGAGUCCUUACAGGGACGAAACAGC [UUACAG] | 1.707 ± 0.0067 | 1.86 ± 0.14
GCUGUCACCGAGAAACUGUGAAGUAUAUCUUAAACCUGGGCACUUAAAAGAUAUAUGGAGUUAGUAGUGCAACCUGCUCGGUCUGAUGAGUCCGUGACGGGACGAAACAGC [GUGACG] | 1.66 ± 0.021 | 1.77 ± 0.11
GCUGUCACCGAGAAACUGUGAAGUAUAUCUUAAACCUGGGCACUUAAAAGAUAUAUGGAGUUAGUAGUGCAACCUGCUCGGUCUGAUGAGUCCGGUAACGGACGAAACAGC [GGUAAC] | 1.743 ± 0.0073 | 1.85 ± 0.077
GCUGUCACCGAGAAACUGUGAAGUAUAUCUUAAACCUGGGCACUUAAAAGAUAUAUGGAGUUAGUAGUGCAACCUGCUCGGUCUGAUGAGUCCUGUCUCGGACGAAACAGC [UGUCUC] | 1.79 ± 0.0075 | 1.88 ± 0.087
GCUGUCACCGAGAAACUGUGAAGUAUAUCUUAAACCUGGGCACUUAAAAGAUAUAUGGAGUUAGUAGUGCAACCUGCUCGGUCUGAUGAGUCCAAGUACGGACGAAACAGC [AAGUAC] | 1.657 ± 0.007 | 1.8 ± 0.14
GCUGUCACCGAGAAACUGUGAAGUAUAUCUUAAACCUGGGCACUUAAAAGAUAUAUGGAGUUAGUAGUGCAACCUGCUCGGUCUGAUGAGUCCACAUCAGGACGAAACAGC [ACAUCA] | 1.683 ± 0.013 | 1.79 ± 0.063
GCUGUCACCGAGAAACUGUGAAGUAUAUCUUAAACCUGGGCACUUAAAAGAUAUAUGGAGUUAGUAGUGCAACCUGCUCGGUCUGAUGAGUCCUAGUUAGGACGAAACAGC [UAGUUA] | 1.67 ± 0.025 | 1.83 ± 0.13
GCUGUCACCGAGAAACUGUGAAGUAUAUCUUAAACCUGGGCACUUAAAAGAUAUAUGGAGUUAGUAGUGCAACCUGCUCGGUCUGAUGAGUCCUAAGUCGGACGAAACAGC [UAAGUC] | 1.663 ± 0.0049 | 1.8 ± 0.11
GCUGUCACCGAGAAACUGUGAAGUAUAUCUUAAACCUGGGCACUUAAAAGAUAUAUGGAGUUAGUAGUGCAACCUGCUCGGUCUGAUGAGUCCCCUCUGGGACGAAACAGC [CCUCUG] | 1.63 ± 0.058 | 1.81 ± 0.1
GCUGUCACCGAGAAACUGUGAAGUAUAUCUUAAACCUGGGCACUUAAAAGAUAUAUGGAGUUAGUAGUGCAACCUGCUCGGUCUGAUGAGUCCAUACAGGGACGAAACAGC [AUACAG] | 1.59 ± 0.089 | 1.77 ± 0.04
GCUGUCACCGAGAAACUGUGAAGUAUAUCUUAAACCUGGGCACUUAAAAGAUAUAUGGAGUUAGUAGUGCAACCUGCUCGGUCUGAUGAGUCCGAUUAUGGACGAAACAGC [GAUUAU] | 1.62 ± 0.022 | 1.77 ± 0.07
GCUGUCACCGAGAAACUGUGAAGUAUAUCUUAAACCUGGGCACUUAAAAGAUAUAUGGAGUUAGUAGUGCAACCUGCUCGGUCUGAUGAGUCCCAAGCAGGACGAAACAGC [CAAGCA] | 1.63 ± 0.035 | 1.76 ± 0.11
